We go through 2 molecules from article PMC9133112, “The structural basis of Cdc7-Dbf4 kinase dependent targeting and phosphorylation of the MCM2-7 double hexamer” (Nature Communications, 2022).

Common to all, as to assay: cryo-EM structure; MD-(ATPγS): 250 nM DH released from beads by AluI + 750 nM DDK, 10 min 24 °C, buffer C with 3 mM ATPγS; GraFix glycerol gradient with glutaraldehyde; states I-III
Holding throughout (settings): both partners purified

For one experiment, the target named is T1, Mcm4 (Saccharomyces cerevisiae, UniProt P30665 1-933).
T1 construct: Mcm4, Saccharomyces cerevisiae, full length; Subunit of m2, written alone for the contacts seen in the cryo-EM structures
T1 sequence (looked up): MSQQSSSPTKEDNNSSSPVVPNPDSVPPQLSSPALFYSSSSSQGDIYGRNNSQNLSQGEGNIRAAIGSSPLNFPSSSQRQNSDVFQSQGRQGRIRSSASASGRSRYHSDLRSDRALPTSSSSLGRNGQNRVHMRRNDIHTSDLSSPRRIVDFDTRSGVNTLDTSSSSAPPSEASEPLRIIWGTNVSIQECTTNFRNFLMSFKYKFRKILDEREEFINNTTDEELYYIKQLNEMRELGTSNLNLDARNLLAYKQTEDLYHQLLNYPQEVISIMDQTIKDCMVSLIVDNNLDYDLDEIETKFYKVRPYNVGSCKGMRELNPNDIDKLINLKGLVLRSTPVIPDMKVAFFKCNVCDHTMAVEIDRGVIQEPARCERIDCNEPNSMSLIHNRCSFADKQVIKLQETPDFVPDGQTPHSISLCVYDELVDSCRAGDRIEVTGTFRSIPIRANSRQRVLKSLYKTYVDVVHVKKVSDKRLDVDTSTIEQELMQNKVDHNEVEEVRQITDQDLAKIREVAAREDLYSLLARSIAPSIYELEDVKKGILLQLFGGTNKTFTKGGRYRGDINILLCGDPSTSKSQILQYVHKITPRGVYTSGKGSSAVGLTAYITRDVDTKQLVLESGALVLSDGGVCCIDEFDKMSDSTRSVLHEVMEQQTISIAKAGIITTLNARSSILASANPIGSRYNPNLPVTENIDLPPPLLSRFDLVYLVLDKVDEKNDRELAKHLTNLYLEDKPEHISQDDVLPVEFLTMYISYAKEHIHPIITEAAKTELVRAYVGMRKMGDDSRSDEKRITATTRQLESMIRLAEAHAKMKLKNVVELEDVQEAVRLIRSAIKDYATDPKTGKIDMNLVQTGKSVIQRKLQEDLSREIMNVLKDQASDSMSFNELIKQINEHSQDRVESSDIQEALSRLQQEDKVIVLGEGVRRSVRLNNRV

Another experiment has as its target T2, Mcm3 (Saccharomyces cerevisiae, UniProt P24279 1-971).
T2 construct: Mcm3, Saccharomyces cerevisiae, full length; Subunit of m2, written alone for the contacts seen in the cryo-EM structures

For the next experiment, the target named is T3, MCM2-7 double hexamer (Saccharomyces cerevisiae, UniProt P29469 1-868; P24279 1-971; P30665 1-933; P29496 1-775; P53091 1-1017; P38132 …).
T3 construct: Mcm2, Saccharomyces cerevisiae, full length; Mcm3, Saccharomyces cerevisiae, full length; Mcm4, Saccharomyces cerevisiae, full length; Mcm5, Saccharomyces cerevisiae, full length; Mcm6, Saccharomyces cerevisiae, full length; Mcm7, Saccharomyces cerevisiae, full length; Two head-to-head MCM2-7 hexamers assembled on origin DNA; becomes (thio-)phosphorylated by DDK on Mcm2, Mcm4, Mcm6 (and Mcm7) …
T3 sequence (P29469 whole entry, chain 1 of 4): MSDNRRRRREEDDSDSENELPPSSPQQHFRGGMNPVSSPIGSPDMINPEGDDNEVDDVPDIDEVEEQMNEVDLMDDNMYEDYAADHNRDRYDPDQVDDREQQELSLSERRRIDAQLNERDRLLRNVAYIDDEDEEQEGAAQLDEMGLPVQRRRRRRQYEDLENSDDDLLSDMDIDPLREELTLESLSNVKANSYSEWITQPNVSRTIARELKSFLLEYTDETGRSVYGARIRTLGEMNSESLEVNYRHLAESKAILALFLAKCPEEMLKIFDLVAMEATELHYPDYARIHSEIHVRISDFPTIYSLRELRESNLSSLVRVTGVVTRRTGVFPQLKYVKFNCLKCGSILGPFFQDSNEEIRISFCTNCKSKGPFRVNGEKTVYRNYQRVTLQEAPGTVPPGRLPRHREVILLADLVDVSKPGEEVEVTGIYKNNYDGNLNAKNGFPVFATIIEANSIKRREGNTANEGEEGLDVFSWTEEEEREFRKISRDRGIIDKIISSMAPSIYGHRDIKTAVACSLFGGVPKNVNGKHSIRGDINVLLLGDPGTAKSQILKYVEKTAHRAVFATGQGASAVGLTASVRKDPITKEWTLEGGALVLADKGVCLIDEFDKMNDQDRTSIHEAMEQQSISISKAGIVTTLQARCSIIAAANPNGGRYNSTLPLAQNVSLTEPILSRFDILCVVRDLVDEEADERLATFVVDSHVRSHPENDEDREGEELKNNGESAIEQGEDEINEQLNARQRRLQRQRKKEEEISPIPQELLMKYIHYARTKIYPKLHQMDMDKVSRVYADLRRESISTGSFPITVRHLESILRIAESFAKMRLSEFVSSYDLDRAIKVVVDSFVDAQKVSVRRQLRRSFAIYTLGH
T3 sequence (P24279 whole entry, chain 2 of 4): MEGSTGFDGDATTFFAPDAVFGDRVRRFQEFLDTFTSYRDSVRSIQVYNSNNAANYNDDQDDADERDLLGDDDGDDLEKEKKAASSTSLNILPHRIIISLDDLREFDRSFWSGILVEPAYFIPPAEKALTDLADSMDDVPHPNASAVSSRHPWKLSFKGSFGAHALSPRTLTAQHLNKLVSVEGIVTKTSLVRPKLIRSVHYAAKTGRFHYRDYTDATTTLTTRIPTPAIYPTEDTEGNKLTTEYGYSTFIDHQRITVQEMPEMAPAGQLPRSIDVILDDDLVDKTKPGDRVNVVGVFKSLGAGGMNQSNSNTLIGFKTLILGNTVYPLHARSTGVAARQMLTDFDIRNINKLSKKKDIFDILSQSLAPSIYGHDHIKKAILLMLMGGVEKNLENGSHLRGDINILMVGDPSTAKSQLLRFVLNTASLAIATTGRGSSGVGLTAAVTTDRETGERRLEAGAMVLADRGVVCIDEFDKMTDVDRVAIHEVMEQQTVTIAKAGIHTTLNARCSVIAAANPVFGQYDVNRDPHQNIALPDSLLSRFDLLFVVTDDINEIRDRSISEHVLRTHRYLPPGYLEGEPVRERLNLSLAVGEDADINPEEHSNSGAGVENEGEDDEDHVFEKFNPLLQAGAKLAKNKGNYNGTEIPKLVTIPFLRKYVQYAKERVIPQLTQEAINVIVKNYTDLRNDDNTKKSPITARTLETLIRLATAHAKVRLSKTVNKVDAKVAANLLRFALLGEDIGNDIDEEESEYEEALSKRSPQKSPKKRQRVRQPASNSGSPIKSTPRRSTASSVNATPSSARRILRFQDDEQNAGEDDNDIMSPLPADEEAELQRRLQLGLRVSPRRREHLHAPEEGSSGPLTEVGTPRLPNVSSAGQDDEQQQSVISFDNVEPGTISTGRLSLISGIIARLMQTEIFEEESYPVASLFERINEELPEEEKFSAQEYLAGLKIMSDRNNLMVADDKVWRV
T3 sequence (P29496 whole entry, chain 4 of 4): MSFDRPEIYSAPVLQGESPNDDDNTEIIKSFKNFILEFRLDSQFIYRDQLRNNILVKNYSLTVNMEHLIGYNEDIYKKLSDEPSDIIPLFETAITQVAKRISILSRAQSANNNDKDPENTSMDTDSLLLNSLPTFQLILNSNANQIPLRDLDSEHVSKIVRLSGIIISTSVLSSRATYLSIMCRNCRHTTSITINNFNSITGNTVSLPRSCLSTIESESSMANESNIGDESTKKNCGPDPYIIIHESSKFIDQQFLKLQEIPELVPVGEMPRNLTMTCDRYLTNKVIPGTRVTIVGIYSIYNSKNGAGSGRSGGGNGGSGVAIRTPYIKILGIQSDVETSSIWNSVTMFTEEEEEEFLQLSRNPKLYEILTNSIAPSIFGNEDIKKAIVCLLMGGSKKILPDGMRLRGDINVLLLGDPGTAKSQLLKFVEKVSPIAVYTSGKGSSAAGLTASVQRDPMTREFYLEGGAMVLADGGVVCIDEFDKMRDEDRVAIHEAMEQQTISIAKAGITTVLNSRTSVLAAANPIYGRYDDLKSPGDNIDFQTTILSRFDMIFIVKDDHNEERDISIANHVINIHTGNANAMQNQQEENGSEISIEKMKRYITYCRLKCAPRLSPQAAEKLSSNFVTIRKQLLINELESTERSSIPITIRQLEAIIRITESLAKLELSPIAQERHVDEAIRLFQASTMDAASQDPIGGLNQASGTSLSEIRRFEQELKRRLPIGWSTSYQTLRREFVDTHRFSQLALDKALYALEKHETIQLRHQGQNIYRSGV
T3 sequence (P53091 whole entry, chain 5 of 4): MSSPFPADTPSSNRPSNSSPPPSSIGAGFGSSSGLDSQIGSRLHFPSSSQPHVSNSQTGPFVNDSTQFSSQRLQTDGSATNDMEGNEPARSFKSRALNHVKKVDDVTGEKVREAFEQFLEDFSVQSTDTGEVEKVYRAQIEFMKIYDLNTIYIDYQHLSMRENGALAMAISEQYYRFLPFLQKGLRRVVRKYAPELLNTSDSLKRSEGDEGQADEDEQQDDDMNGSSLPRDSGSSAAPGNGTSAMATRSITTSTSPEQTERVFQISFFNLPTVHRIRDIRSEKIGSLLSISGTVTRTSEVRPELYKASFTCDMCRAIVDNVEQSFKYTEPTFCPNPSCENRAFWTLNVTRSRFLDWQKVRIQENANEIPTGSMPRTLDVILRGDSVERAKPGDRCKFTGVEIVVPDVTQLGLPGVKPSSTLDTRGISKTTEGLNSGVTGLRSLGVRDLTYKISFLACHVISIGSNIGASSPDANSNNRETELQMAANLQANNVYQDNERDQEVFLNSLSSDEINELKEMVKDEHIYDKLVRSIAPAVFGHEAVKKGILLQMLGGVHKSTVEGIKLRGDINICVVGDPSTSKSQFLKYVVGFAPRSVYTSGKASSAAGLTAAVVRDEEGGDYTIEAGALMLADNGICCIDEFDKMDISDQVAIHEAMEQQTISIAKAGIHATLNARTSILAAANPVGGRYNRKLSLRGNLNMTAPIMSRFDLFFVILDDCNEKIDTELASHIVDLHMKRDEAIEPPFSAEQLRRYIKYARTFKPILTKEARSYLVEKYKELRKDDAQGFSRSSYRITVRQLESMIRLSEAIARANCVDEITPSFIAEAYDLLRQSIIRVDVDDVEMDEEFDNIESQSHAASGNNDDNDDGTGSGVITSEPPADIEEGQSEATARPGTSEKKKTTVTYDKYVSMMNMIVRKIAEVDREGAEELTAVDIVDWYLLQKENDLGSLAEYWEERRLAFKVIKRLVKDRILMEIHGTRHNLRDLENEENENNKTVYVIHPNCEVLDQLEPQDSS

T2 sequence (P24279 whole entry): as the sequence (P24279 whole entry, chain 2 of 4) above

B1: Mcm7 (natural protein, Saccharomyces cerevisiae, UniProt P38132 1-845, looked up)
chain: MSAALPSIQLPVDYNNLFNEITDFLVTFKQDTLSSDATRNENEDENLDAENIEQHLLEKGPKYMAMLQKVANRELNSVIIDLDDILQYQNEKFLQGTQADDLVSAIQQNANHFTELFCRAIDNNMPLPTKEIDYKDDVLDVILNQRRLRNERMLSDRTNEIRSENLMDTTMDPPSSMNDALREVVEDETELFPPNLTRRYFLYFKPLSQNCARRYRKKAISSKPLSVRQIKGDFLGQLITVRGIITRVSDVKPAVEVIAYTCDQCGYEVFQEVNSRTFTPLSECTSEECSQNQTKGQLFMSTRASKFSAFQECKIQELSQQVPVGHIPRSLNIHVNGTLVRSLSPGDIVDVTGIFLPAPYTGFKALKAGLLTETYLEAQFVRQHKKKFASFSLTSDVEERVMELITSGDVYNRLAKSIAPEIYGNLDVKKALLLLLVGGVDKRVGDGMKIRGDINVCLMGDPGVAKSQLLKAICKISPRGVYTTGKGSSGVGLTAAVMKDPVTDEMILEGGALVLADNGICCIDEFDKMDESDRTAIHEVMEQQTISISKAGINTTLNARTSILAAANPLYGRYNPRLSPLDNINLPAALLSRFDILFLMLDIPSRDDDEKLAEHVTYVHMHNKQPDLDFTPVEPSKMREYIAYAKTKRPVMSEAVNDYVVQAYIRLRQDSKREMDSKFSFGQATPRTLLGIIRLSQALAKLRLADMVDIDDVEEALRLVRVSKESLYQETNKSKEDESPTTKIFTIIKKMLQETGKNTLSYENIVKTVRLRGFTMLQLSNCIQEYSYLNVWHLINEGNTLKFVDDGTMDTDQEDSLVSTPKLAPQTTASANVSAQDSDIDLQDA
notes: Mcm7, Saccharomyces cerevisiae, full length; Subunit of m2, written alone for the contacts seen in the cryo-EM structures
As for B1, the binding result with Mcm4 and with Mcm3 was “binds” in each case.

B2: Dbf4-dependent Cdc7 kinase (DDK), wild type (complex, Saccharomyces cerevisiae)
chain 1: MTSKTKNIDDIPPEIKEEMIQLYHDLPGIENEYKLIDKIGEGTFSSVYKAKDITGKITKKFASHFWNYGSNYVALKKIYVTSSPQRIYNELNLLYIMTGSSRVAPLCDAKRVRDQVIAVLPYYPHEEFRTFYRDLPIKGIKKYIWELLRALKFVHSKGIIHRDIKPTNFLFNLELGRGVLVDFGLAEAQMDYKSMISSQNDYDNYANTNHDGGYSMRNHEQFCPCIMRNQYSPNSHNQTPPMVTIQNGKVVHLNNVNGVDLTKGYPKNETRRIKRANRAGTRGFRAPEVLMKCGAQSTKIDIWSVGVILLSLLGRRFPMFQSLDDADSLLELCTIFGWKELRKCAALHGLGFEASGLIWDKPNGYSNGLKEFVYDLLNKECTIGTFPEYSVAFETFGFLQQELHDRMSIEPQLPDPKTNMDAVDAYELKKYQEEIWSDHYWCFQVLEQCFEMDPQKRSSAEDLLKTPFFNELNENTYLLDGESTDEDDVVSSSEADLLDKDVLLISE
chain 2: MVSPTKMIIRSPLKETDTNLKHNNGIAASTTAAGHLNVFSNDNNCNNNNTTESFPKKRSLERLELQQQQHLHEKKRARIERARSIEGAVQVSKGTGLKNVEPRVTPKELLEWQTNWKKIMKRDSRIYFDITDDVEMNTYNKSKMDKRRDLLKRGFLTLGAQITQFFDTTVTIVITRRSVENIYLLKDTDILSRAKKNYMKVWSYEKAARFLKNLDVDLDHLSKTKSASLAAPTLSNLLHNEKLYGPTDRDPRTKRDDIHYFKYPHVYLYDLWQTWAPIITLEWKPQELTNLDELPYPILKIGSFGRCPFIGDRNYDESSYKRVVKRYSRDKANKKYALQLRALFQYHADTLLNTSSVNDQTKNLIFIPHTCNDSTKSFKKWMQEKAKNFEKTELKKTDDSAVQDVRNEHADQTDEKNSILLNETETKEPPLKEEKENKQSIAEESNKYPQRKELAATPKLNHPVLATFARQETEEVPDDLCTLKTKSRQAFEIKASGAHQSNDVATSFGNGLGPTRASVMSKNMKSLSRLMVDRKLGVKQTNGNNKNYTATIATTAETSKENRHRLDFNALKKDEAPSKETGKDSAVHLETNRKPQNFPKVATKSVSADSKVHNDIKITTTESPTASKKSTSTNVTLHFNAQTAQTAQPVKKETVKNSGYCENCRVKYESLEQHIVSEKHLSFAENDLNFEAIDSLIENLRFQI
notes: Cdc7 serine/threonine kinase, Saccharomyces cerevisiae, full length; Dbf4 (dumbbell former 4), Saccharomyces cerevisiae, full length; An MBP tag was cleaved with PreScission Protease; Treated with lambda phosphatase during purification; autophosphorylates (thio-phosphorylates with ATPγS) in the assays; also called Cdc7-Dbf4; WT DDK; source: budding yeast cells, purified (amylose resin, lambda …)
B2: the “stoichiometry N” value in the experiment with MCM2-7 double hexamer is 2 DDK per MCM2-7 double hexamer.
